T1: recombinant human OX40-his protein (human, UniProt P43489 29-214)
T1 construct: Secreted via the native signal peptide, which lies within residues 1-214; also called Human OX40R-His; histidine tagged human OX40 receptor extracellular domain
T1 sequence: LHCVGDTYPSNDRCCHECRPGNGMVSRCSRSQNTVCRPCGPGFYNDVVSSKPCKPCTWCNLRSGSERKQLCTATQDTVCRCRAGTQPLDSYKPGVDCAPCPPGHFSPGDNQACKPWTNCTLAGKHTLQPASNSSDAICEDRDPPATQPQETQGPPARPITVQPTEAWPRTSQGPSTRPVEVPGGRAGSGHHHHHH

T2: human OX40 on cells (human, UniProt P43489 29-277)
T2 sequence (looked up): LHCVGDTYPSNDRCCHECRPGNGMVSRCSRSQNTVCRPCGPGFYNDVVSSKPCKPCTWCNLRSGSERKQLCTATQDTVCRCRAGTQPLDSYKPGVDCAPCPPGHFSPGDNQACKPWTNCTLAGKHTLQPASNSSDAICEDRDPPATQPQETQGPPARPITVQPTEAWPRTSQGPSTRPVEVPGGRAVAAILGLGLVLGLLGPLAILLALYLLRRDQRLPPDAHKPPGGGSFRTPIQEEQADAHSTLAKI

B1: mouse 2H6 antibody (hybridoma 2H6) (antibody, V domains shown)
VH: DVQLQESGPGLVKPSQSLSLTCTVTGYSITSDYAWNWIRQFPGNKLEWMGYISYSGSTAYNPSLKSRISITRDTSKNQFFLQLNSVTTEDTATYYCARGPYNYLAYWGQGTLVTVSS
VL: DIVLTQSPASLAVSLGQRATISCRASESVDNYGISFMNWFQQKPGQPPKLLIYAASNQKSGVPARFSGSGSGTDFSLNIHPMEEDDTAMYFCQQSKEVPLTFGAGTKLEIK
notes: also called mouse antibody 2H6
B2: pab1949 IgG1 (antibody, V domains shown)
VH: EVQLVESGGGLVQPGGSLKLSCAASGFTFSGSAMHWVRQASGKCLEWVGRIRSKANSYATAYAASVKGRFTISRDDSKNTAYLQMNSLKTEDTAVYYCTSGIYDSSGYDYWGQGTLVTVSS
VL: not shown
B3: Fc-7H11 scFv/2H6 Fab (other)
heavy 1: HTCPPCPAPEAAGGPSVFLFPPKPKDTLMISRTPEVTCVVVDVSHEDPEVQFKWYVDGVEVHNAKTKPREEQYNSTFRVVSVLTVLHQDWLNGKEYKCKVSNKALPAPIEKTISKTKGQPREPAVYTLPPSREEMTKNQVKLVCLVTGFYPSDIAVEWESSGQPENNYYTTPPMLDSDGSFSLVSWLNVDKSRWQQGNIFSCSVMHEALHNRFTQKSLSLSPGGGGGTQVQLVQSGAEVKKPGASVKVSCKASGYTFTRYYMHWVRQAPGQCLEWMGWIYPGEGSTKYAQKFQGRVTMTRDTSISTAYMELSRLRSDDTAVYYCAREYGNYDYWGQGTLVTVSSGGGGSGGGGSGGGGSDIVMTQSPDSLAVSLGERATINCKSSQSLLNSGNQKNYLAWYQQKPGQPPKLLIYGASTRESGVPDRFSGSGSGTDFTLTISSLQAEDVAVYYCQNDHSYPYTFGCGTKLEIL
heavy 2: HTCPPCPAPEAAGGPSVFLFPPKPKDTLMISRTPEVTCVVVDVSHEDPEVKFNWYVDGVEVHNAKTKPREEQYNSTYRVVSVLTVLHQDWLNGKEYKCKVSNKALPAPIEKTISKAKGQPREPEVATFPPSRDELTKNQVTLVCLVTGFYPSDIAVEWESNGQPENNYKTDPPLLESDGSFALSSRLRVDKSRWQQGNVFSCSVMHEALHNHYTQKSLSLSPGGGGGTEVQLVESGGGLVQPGGSLRLSCAVSGYSITSDYAWNWIRQAPGKGLEWMGYISYSGSTAYNPSLKSRITISRDTSKNTFYLQMNSLRAEDTAVYYCARGPYNYLAYWGQGTLVTVSSASTKGPSVFPLAPSSKSTSGGTAALGCLVKDYFPEPVTVSWNSGALTSGVHTFPAVLQSSGLYSLSSVVTVPSSSLGTQTYICNVNHKPSNTKVDKKVEPKSC
light: DIQLTQSPSSLSASVGDRVTITCRASESVDNYGISFMNWFQQKPGKAPKLLIYAASNQKSGVPSRFSGSGSGTDFTLTISSLQPEDFATYFCQQSKEVPLTFGQGTKVEIKRTVAAPSVFIFPPSDEQLKSGTASVVCLLNNFYPREAKVQWKVDNALQSGNSQESVTEQDSKDSTYSLSSTLTLSKADYEKHKVYACEVTHQGLSSPVTKSFNRGEC
notes: N-terminal Fabs removed by digestion; also called Fc-2H6 Fab/7H11 scFv; purified digestion product of Tetra-20
B4: OX40-CRD-Avi-his (receptor)
chain: LHCVGDTYPSNDRCCHECRPGNGMVSRCSRSQNTVCRPCGPGFYNDVVSSKPCKPCTWCNLRSGSERKQLCTATQDTVCRCRAGTQPLDSYKPGVDCAPCPPGHFSPGDNQACKPWTNCTLAGKHTLQPASNSSDAICEDRDGLNDIFEAQKIEWHEHHHHHH
notes: limits of the construct not described

Key:
[1] = molecular target: T1, recombinant human OX40-his protein; assay: direct ELISA on coated OX40-his
Description: Plates were incubated overnight at 4° C. and were then blocked with PBS 2% BSA (Bovine Serum Albumine, PAA Laboratories, Pasching, Austria) at room temperature (RT) for one hour. […] Absorbance was then read at 450 nm by a microplate reader (Biotek, USA; distributor: WITTEC AG, Littau, Switzerland).

rat OX40-Fc = rat OX40-Fc (rat); assay: ELISA on coated rat OX40-Fc
Description: These constructs were expressed in HEK293-EBNA1 cells and purified using protein A. Then, human and rat OX40-Fc were tested in ELISA and Biacore to determine antibody cross-reactivity. For the ELISA, 96 well-microtiter plates (Costar USA, distributor VWR AG, Nyon, Switzerland) were coated with 100 μl of recombinant human or rat OX40-Fc at 2 μg/ml in PBS. Plates were incubated overnight at 4° C. and were then blocked with PBS 2% BSA (Bovine Serum Albumine, PAA Laboratories, Pasching, Austria) at room temperature (RT) for one hour. The blocking solution was removed and the purified antibodies were added at 10 μg/ml in PBS 2% BSA. The plates were incubated at RT for 1 hour, then washed 5 times with PBS 0.01% Tween-20 (Sigma-Aldrich Chemie GmbH, Buchs, Switzerland). […] Plates were incubated for 1 hour at RT, washed 5 times with PBS 0.01% Tween-20 and the TMB substrate (Bio-rad Laboratories AG, Reinach, Switzerland) was added to the plates and the reaction stopped after 5 minutes by adding H₂SO₄. Absorbance was then read at 450 nm by a microplate reader (Biotek, USA; distributor: WITTEC AG, Littau, Switzerland). Biacore experiments were specifically conducted with Hexa-hzG3V9 and Hexa-hz1D10v1 which are dAb-Fc fusion proteins. […] Binding of human and cyno OX40-Fc molecules was determined by successively injecting these proteins on the 4 flow-paths (flow-path 1 and 3 being used as references) at a concentration of 200 nM and a flow rate of 30 uL/min for 240 seconds. Regeneration between the two injections was done using 3M MgCl2, at 30 uL/min for 60 seconds. Using these two approaches, human/rat OX40 binding was assessed (table 16).

OX40-CRD-Avi-his = molecular target: B4; assay: SPR, antibody captured by anti-human IgG Fc, hsOX40_CRD_Avi_His injected
Description: (§1) Dilution series of hsOX40_CRD_Avi_His (SEQ ID NO: 159) were then injected.

human OX40 on cells = molecular target: T2, human OX40 on cells; assay: cell-based or functional assay
chiOX40R HHRH-Fc = molecular target: T3, chiOX40R HHRH-Fc (human/rat chimera; human); assay: SPR, chimera immobilised (3000 RU), fragment injected at 200 nM
T3 construct: also called chiOX40R-Fc HHRH; chiOX40R OX40 HHRH-Fc
Description: A second injection was then performed using HBS-EP buffer for 3 min followed by 5 min of dissociation. Regeneration between the injections was done using glycine pH1.5 buffer for 1 min (FIG. 21 and table 23).

[2] = molecular target: pab1949 scFv fused in C-terminus (Fc fragment after digestion); assay: SPR, Fc-scFv fragment captured by anti-human IgG Fc, OX40-CRD-Avi-his injected
Description: The antibody/protease mixture was incubated over night at 37° C. […] After each binding event, the surface was regenerated with 10 μl of MgCl2 (3M) buffer. Experimental data were processed using a 1:1 Langmuir model with local Rmax. The dissociation time was about 7 min.
as §1

T3 sequence (chain, as listed by the source): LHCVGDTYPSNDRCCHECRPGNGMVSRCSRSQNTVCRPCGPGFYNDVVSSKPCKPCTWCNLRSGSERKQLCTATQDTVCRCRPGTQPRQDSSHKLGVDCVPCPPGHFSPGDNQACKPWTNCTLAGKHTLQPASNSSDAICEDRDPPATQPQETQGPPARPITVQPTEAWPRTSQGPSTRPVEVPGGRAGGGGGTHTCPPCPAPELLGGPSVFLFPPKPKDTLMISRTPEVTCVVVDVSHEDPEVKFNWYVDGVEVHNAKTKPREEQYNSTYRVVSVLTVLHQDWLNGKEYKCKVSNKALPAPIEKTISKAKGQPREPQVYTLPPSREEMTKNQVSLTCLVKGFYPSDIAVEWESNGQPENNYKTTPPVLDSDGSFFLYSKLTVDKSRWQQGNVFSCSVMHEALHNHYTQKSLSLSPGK
rat OX40-Fc (rat), sequence (chain, as listed by the source limits assumed): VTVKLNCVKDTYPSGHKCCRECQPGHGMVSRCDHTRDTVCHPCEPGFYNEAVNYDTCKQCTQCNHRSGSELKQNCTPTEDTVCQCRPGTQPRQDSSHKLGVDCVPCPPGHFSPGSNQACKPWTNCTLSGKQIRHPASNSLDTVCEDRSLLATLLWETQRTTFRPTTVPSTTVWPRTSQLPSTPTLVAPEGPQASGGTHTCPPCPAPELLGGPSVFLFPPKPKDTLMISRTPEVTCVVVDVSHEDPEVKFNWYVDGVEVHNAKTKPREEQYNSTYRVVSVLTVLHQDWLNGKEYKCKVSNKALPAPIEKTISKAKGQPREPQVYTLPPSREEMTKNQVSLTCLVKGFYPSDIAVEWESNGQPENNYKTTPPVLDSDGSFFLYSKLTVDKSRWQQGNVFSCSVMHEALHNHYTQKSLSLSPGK

Binder: B1
binding result [1]: binds

Binder: B2
binding result (rat OX40-Fc): no binding (tested: 10 µg/ml)
Kd (OX40-CRD-Avi-his): 304 nM
% donor responder (>2), SEB assay, IL-2 release (human OX40 on cells): 80%
Mean, normalized IL-2 release, SEB assay (human OX40 on cells): 4.74

Binder: B3
response units (chiOX40R HHRH-Fc): 100 RU

Binder: B4
Kd [2]: 460 nM

From patent US20200347143A1 (GLENMARK PHARMACEUTICALS S A, published 2020)
